Data from publication PMC4741471 (Oncotarget, 2015).

Target: the molecule itself
Experiment: non-reducing SDS-PAGE without heating

B1: cholera toxin B subunit (recombinant, His6-tagged CTB) (natural protein)
chain: TPQNITDLCAEYHNTQIYTLNDKIFSYTESLAGKREMAIITFKNGAIFQVEVPGSQHIDSQKKAIERMKDTLRIAYLTEAKVEKLCVWNNKTPHAIAAISMAN
stoichiometry N: 5
